Source: patent US20170114118A1 (NATIONAL INSTITUTE FOR BIOTECHNOLOGY I, published 2017)
Substitutions are numbered along the chain they refer to.

T1: TNF-like 1A (TL1A) (UniProt O95150 72-251)
T1 construct: Bought soluble TL1A; Biotinylated for yeast display, unlabelled in SPR and ELISA; also called TL1A cytokine
T1 sequence (looked up): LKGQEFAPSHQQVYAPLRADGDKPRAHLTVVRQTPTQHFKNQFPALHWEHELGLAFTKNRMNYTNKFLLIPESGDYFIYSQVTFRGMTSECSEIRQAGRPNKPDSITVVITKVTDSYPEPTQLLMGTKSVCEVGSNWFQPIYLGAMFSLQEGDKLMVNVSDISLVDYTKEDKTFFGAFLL

B1: DR3 (receptor, human, UniProt Q93038 25-199, looked up)
receptor extracellular domain displayed on the yeast surface as an Aga2 fusion: QGGTRSPRCDCAGDFHKKIGLFCCRGCPAGHYLKAPCTEPCGNSTCLVCPQDTFLAWENHHNSECARCQACDEQASQVALENCSAVADTRCGCKPGWFVECQVSQCVSSSPFYCQPCLDCGALHRHTRLLCSRRDTDCGTCLPGFYEHGDGCVSCPTSTLGSCPERCAAVCGWRQ
notes: extracellular domain, wild type, Aga2 fusion on EBY100 yeast
B2: WT DR3 extracellular domain fused with human IgG1 Fc (DR3-Fc WT) (Fc fusion)
chain: GGTRSPRCDCAGDFHKKIGLFCCRGCPAGHYLKAPCTEPCGNSTCLVCPQDTFLAWENHHNSECARCQACDEQASQVALENCSAVADTRCGCKPGWFVECQVSQCVSSSPFYCQPCLDCGALHRHTRLLCSRRDTDCGTCLPGFYEHGDGCVSCPTSTLGSCPERCAAVCGWRQIEGRMDRSVECPPCPAPPVAGPSVFLFPPKPKDTLMISRTPEVTCVVVDVSHEDPEVKFNWYVDGVEVHNAKTKPREEQYNSTYRVVSVLTVLHQDWLNGKEYKCKVSNKGLPSSIEKTISKAKGQPREPQVYTLPPSREEMTKNQVSLTCLVKGFYPSDIAVEWESNGQPENNYKTTPPVLDSDGSFFLYSKLTVDKSRWQQGNVFSCSVMHEGLHNHYTQKSLSLSPGK
notes: also called DR3 WT; soluble DR3 WT
B3: DR3 variant having SEQ ID NO: 5, fused with human IgG1 Fc (Fc fusion)
chain: B2 chain with E38K, V47P, W56R, A65T, K93A, Q101S, L129P
notes: Linker and Fc as for m2
B4: DR3 variant having SEQ ID NO: 2, fused with human IgG1 Fc (Fc fusion)
chain: B2 chain with I18Y, V47P, D51G, A65T, K93A, Q101S, L129P
notes: Linker and Fc as for m2
B5: DR3 variant having SEQ ID NO: 3, fused with human IgG1 Fc (Fc fusion)
chain: B2 chain with I18T, V47P, D51G, N61E, K93E, Q104P, L129P
notes: Linker and Fc as for m2
B6: DR3 variant having SEQ ID NO: 4, fused with human IgG1 Fc (Fc fusion)
chain: B2 chain with I18Y, D51G, K93E, L129P
notes: Linker and Fc as for m2
B7: DR3 variant having SEQ ID NO: 9, fused with human IgG1 Fc (Fc fusion)
chain: B2 chain with H15Q, V47P, N61E, K93E, Q101S, Q104P, L129P
notes: Tested as secreted Fc fusion in HEK293 medium (ELISA screen); Linker and Fc as for m2
B8: DR3 variant having SEQ ID NO: 7, fused with human IgG1 Fc (Fc fusion)
chain: B2 chain with E38K, V47P, A65T, Q101S
notes: as for B7
B9: DR3 variant having SEQ ID NO: 6, fused with human IgG1 Fc (Fc fusion)
chain: B2 chain with H15Q, V47P, W56R, Q104P
notes: as for B7

Target: T1, TNF-like 1A (TL1A)
Assay: flow cytometry of yeast displaying DR3 as Aga2 fusion, incubated with 0.2 uM biotinylated TL1A, detected with streptavidin-APC
Protocol: FIGS. 3A-B. Screening for improved DR3 mutants using yeast surface display (YSD). […] Expression and TL1A binding are detected by fluorescent antibodies and streptavidin, respectively. (B) Flow cytometry histogram analysis of cell population displaying WT DR3, DR3 mutant library after two rounds (R2) and three rounds of enrichment (R3) for binding to TL1A. Cell population that lacks surface display is shown in black. Analysis of cells was performed following incubation with 0.2 μM of TL1A.
Briefly, EBY100 cells transformed with plasmid pCTCON containing the desired clone were grown in SDCAA media (20 g […], 6.7 g yeast nitrogen base, 5 g casamino acids, 5.4 g Na2HPO4 and 8.56 g NaH2PO4*H2O) at 30° C. to logarithmic phase. Then, 2*10⁶ of cells were washed, resuspended in SGCAA induction media (similar to SDCAA but containing galactose instead of […]) and grown at 30° C. with shaking for an additional 18 hours. Induced cells (1*10⁶) were collected by centrifugation, washed with PBSF (PBS+1 g/L BSA) and incubated for 1 hour at […] with 0.2 μM TL1A (R&D Systems) that was biotinylated using biotin labeling kit (Pierce) according to manufacturer's procedure. […] The labeled cells were washed, resuspended with PBSF and analyzed by flow cytometry (FACS Calibur, BD).

| binding result | Binder |
| --- | --- |
| binds | B1 |

Target: T1, TNF-like 1A (TL1A)
Assay: SPR (ProteOn XPR36), DR3-Fc immobilized, TL1A as analyte
Protocol: The affinity of TL1A binding to DR3 variants was determined by surface plasmon resonance (SPR) measurements on a ProteOn XPR36 (Bio-Rad) instrument. All samples were in PBS containing 2 mM of DTT. A GLC Chip was air-initialized and activated with EDC/S-NHS. 5 μg from each of the DR3 variants were diluted in acetate buffer, pH 5.5, and immobilized onto the chip as a reference and BSA was also loaded onto the chip. After blocking available unbound sites on the chip with ethanolamine, the chip was washed with HBST buffer and rotated. TL1A was run at 30 μl/min for 300 sec at various concentrations (100, 50, 25, 12.5 and 6.25 nM), followed by a 10-min dissociation step. Binding parameters were determined with the Langmuir single binding site model, using the Bio-Rad's proteOn Manager software V2.1.2.05.
Next, the TL1A binding affinity to the different DR3 variants was characterized using surface plasmon resonance (Table 3).

| Kd | koff | kon | Fold increase in Affinity (against WT) | Binder |
| --- | --- | --- | --- | --- |
| 44.9 nM | 0.00072 s⁻¹ | 16000 M⁻¹ s⁻¹ |  | B2 |
| 26.9 nM | 0.000643 s⁻¹ | 23900 M⁻¹ s⁻¹ | 1.7 fold | B3 |
| 8.26 nM | 0.000351 s⁻¹ | 42600 M⁻¹ s⁻¹ | 5 fold | B4 |
| 6.79 nM | 0.000237 s⁻¹ | 34900 M⁻¹ s⁻¹ | 6.6 fold | B5 |
| 9.83 nM | 0.000357 s⁻¹ | 36300 M⁻¹ s⁻¹ | 4.6 fold | B6 |

Target: T1, TNF-like 1A (TL1A)
Assay: ELISA screen, HEK293 medium with secreted DR3-Fc on captured TL1A
Protocol: The plates were then washed with PBST and blocked by incubation with 150 μl of PBS supplemented with 3% skim milk for 1 hour. Following blocking, the plates were washed and incubated with 100 μl of media of HEK293T transfected with WT or DR3 mutants harvested 48 or 72 hours post transfection, ELISA plates were shaken for additional hour. DR3-Fc (R&D Systems) was added at a concentration of 2 μg/ml as a positive control, and PBS supplemented with 1% BSA served as a negative control. Plates were then washed with PBST, incubated with 100 μl of 0.05 μg/ml of biotinylated goat polyclonal α-DR3 antibodies (R&D Systems), followed by incubation with secondary peroxidase-conjugated streptavidin (Jackson, 1:10000 dilution). Finally, 100 μl of horseradish peroxidase (HRP) chromogenic 3,3′,5,5′-tetramethylbenzidine (TMB) substrate solution (Dako) were added. The reaction was stopped by the addition of 1 M sulfuric acid and recorded at 450 nm using a Tecan Infinite M200 plate reader.
To identify single DR3 mutant candidates with enhanced binding affinity for TL1A, the FACS-enriched library was sub-cloned into a mammalian vector containing leader peptide and fused with human IgG1 Fc. […] Thus, the mammalian based expression of soluble DR3 receptor offers the advantage of maintaining the native protein posttranslational modifications including glycosylation. To obtain high level of DR3 expression in mammalian cells, the leader peptide sequence was optimized (FIG. 4), transfection and expression conditions in HEK293F cells (see Experimental Procedures for details). To facilitate the screening of a relatively large number of DR3 mutants, cells were transfected in 24 plate format and the secreted DR3 was examined for TL1A interaction using ELISA. A fast and sensitive ELISA that is based on immobilizing TL1A on multi-well plates and detecting DR3 binding using specific antibodies was developed (FIG. 5).

| binding result | Binder |
| --- | --- |
| binds | B7 |
| binds | B8 |
| binds | B9 |
